Laboratory results published in paper doi:10.1101/2025.06.05.658000.
Where two headings read alike, the source gives them in different places.

What was measured:
Assay in all cases: ELISA
[1] = molecular target: HLA-DR (DRA1*01:01 / DRB1*01:01), soluble knob-into-hole Fc heterodimer (human)
[2] = molecular target: HLA-DR (DRA1*01:01 / DRB1*13:02), soluble knob-into-hole Fc heterodimer (human)
[3] = molecular target: HLA-DR (DRA1*01:01 / DRB1*13:01), soluble knob-into-hole Fc heterodimer (human)
[4] = molecular target: HLA-DR (DRA1*01:01 / DRB1*13:02), soluble knob-into-hole Fc heterodimer (human); remark: listed apart in the source
The majority of HLA-DR = molecular target: The majority of HLA-DR
[5] = molecular target: HLA-DR (DRA1*01:01 / DRB1*13:01), soluble knob-into-hole Fc heterodimer (human); remark: listed apart in the source

| Substance | IC50 [1] | affinity [2] | affinity [3] | affinity [4] | affinity (The majority of HLA-DR) | affinity [5] |
| --- | --- | --- | --- | --- | --- | --- |
| SARS-CoV-2 RBD peptide RBD487-501 (from UniProt P0DTC2 487-501) | 293 nM | – | – | – | – | – |
| SARS-CoV-2 RBD peptide RBD491-505 (from UniProt P0DTC2 491-505) | 152 nM | – | – | – | – | – |
| biotin-labeled human Class II-associated Invariant Chain Peptide (Bio-CLIP) | – | 4 µM | 300 nM | < 300 nM | 0 to 25 nM | < 300 nM |
